Legend:
Experiment in all cases: cell-based or functional assay
[1] = molecular target: HIV Env of isolate MS208.A1 (HIV)
[2] = molecular target: HIV Env of isolate ZM197M.PB7 (HIV)
[3] = molecular target: HIV Env of isolate R3265.c06 (HIV)
[4] = molecular target: HIV Env of isolate CAAN5342.A2 (HIV)
[5] = molecular target: HIV Env of isolate 6240_08_TA5_4622 (HIV)
[6] = molecular target: HIV Env of isolate 89-F1_2_25 (HIV)
[7] = molecular target: HIV Env of isolate 62357_14_D3_4589 (HIV)
[8] = molecular target: HIV Env of isolate Q769.d22 (HIV)
[9] = molecular target: HIV Env of isolate ZM214M.PL15 (HIV)
[10] = molecular target: HIV Env of isolate ZM247v1(Rev-) (HIV)
[11] = molecular target: HIV Env of isolate T255-34 (HIV)
[12] = molecular target: HIV Env of isolate 246F_C1G (HIV)
HIV Env of isolate CNE30 = HIV Env of isolate CNE30 (HIV)
[13] = molecular target: HIV Env of isolate T250-4 (HIV)
[14] = molecular target: HIV Env of isolate 1054_07_TC4_1499 (HIV)
[15] = molecular target: HIV Env of isolate C3347.c11 (HIV)
[16] = molecular target: HIV Env of isolate X2088_c9 (HIV)
[17] = molecular target: HIV Env of isolate X1254_c3 (HIV)
[18] = molecular target: HIV Env of isolate 6952.v1.c20 (HIV)
[19] = molecular target: HIV Env of isolate Q461.e2 (HIV)
[20] = molecular target: HIV Env of isolate X2131_C1_B5 (HIV)
[21] = molecular target: HIV Env of isolate R1166.c01 (HIV)
HIV Env of isolate CNE58 = HIV Env of isolate CNE58 (HIV)
[22] = molecular target: HIV Env of isolate R2184.c04 (HIV)
[23] = molecular target: HIV Env of isolate 1056_10_TA11_1826 (HIV)
[24] = molecular target: HIV Env of isolate X1632_S2_B10 (HIV)
HIV Env of isolate PVO.4 = HIV Env of isolate PVO.4 (HIV)
HIV Env of isolate 263-8 = HIV Env of isolate 263-8 (HIV)
[25] = molecular target: HIV Env of isolate TRO.11 (HIV)
[26] = molecular target: HIV Env of isolate Q23.17 (HIV)
[27] = molecular target: HIV Env of isolate BJOX009000.02.4 (HIV)
[28] = molecular target: HIV Env of isolate 620345.c01 (HIV)
[29] = molecular target: HIV Env of isolate Ce0393_C3 (HIV)
[30] = molecular target: HIV Env of isolate WEAU_d15_410_5017 (HIV)
[31] = molecular target: HIV Env of isolate 7030102001E5(Rev-) (HIV)
[32] = molecular target: HIV Env of isolate RHPA4259.7 (HIV)
HIV Env of isolate CNE17 = HIV Env of isolate CNE17 (HIV)
[33] = molecular target: HIV Env of isolate HIV-0013095-2.11 (HIV)
[34] = molecular target: HIV Env of isolate 6811.v7.c18 (HIV)
[35] = molecular target: HIV Env of isolate HIV-16055-2.3 (HIV)
HIV Env of isolate CNE21 = HIV Env of isolate CNE21 (HIV)
[36] = molecular target: HIV Env of isolate 0815.v3.c3 (HIV)
[37] = molecular target: HIV Env of isolate ZM249M.PL1 (HIV)
[38] = molecular target: HIV Env of isolate QH0692.42 (HIV)
[39] = molecular target: HIV Env of isolate 3817.v2.c59 (HIV)

B1: PGT-121 (antibody, V domains shown)
VH: QMQLQESGPGLVKPSETLSLTCSVSGASISDSYWSWIRRSPGKGLEWIGYVHKSGDTNYSPSLKSRVNLSLDTSKNQVSLSLVAATAADSGKYYCARTLHGRRIYGIVAFNEWFTYFYMDVWGNGTQVTVSS
VL: SDISVAPGETARISCGEKSLGSRAVQWYQHRAGQAPSLIIYNNQDRPSGIPERFSGSPDSPFGTTATLTITSVEAGDEADYYCHIWDSRVPTKWVFGGGTTLTVLG
neutralization IC50 [1]: > 50000 ng/mL
neutralization IC50 [2]: > 50000 ng/mL
neutralization IC50 [3]: > 50000 ng/mL
neutralization IC50 [4]: 7 ng/mL
neutralization IC50 [5]: 33 ng/mL
neutralization IC50 [6]: > 50000 ng/mL
neutralization IC50 [7]: 2600 ng/mL
neutralization IC50 [8]: > 50000 ng/mL
neutralization IC50 [9]: 460 ng/mL
neutralization IC50 [10]: 28 ng/mL
neutralization IC50 [11]: 18700 ng/mL
neutralization IC50 [12]: 41 ng/mL
neutralization IC50 (HIV Env of isolate CNE30): > 50000 ng/mL
neutralization IC50 [13]: 1 ng/mL
neutralization IC50 [14]: 64 ng/mL
neutralization IC50 [15]: > 50000 ng/mL
neutralization IC50 [16]: 3 ng/mL
neutralization IC50 [17]: 14 ng/mL
neutralization IC50 [18]: 56 ng/mL
neutralization IC50 [19]: > 50000 ng/mL
neutralization IC50 [20]: 4 ng/mL
neutralization IC50 [21]: > 50000 ng/mL
neutralization IC50 (HIV Env of isolate CNE58): > 50000 ng/mL
neutralization IC50 [22]: > 50000 ng/mL
neutralization IC50 [23]: 4 ng/mL
neutralization IC50 [24]: > 50000 ng/mL
neutralization IC50 (HIV Env of isolate PVO.4): 98 ng/mL
neutralization IC50 (HIV Env of isolate 263-8): 648 ng/mL
neutralization IC50 [25]: 5 ng/mL
neutralization IC50 [26]: 1 ng/mL
neutralization IC50 [27]: 2860 ng/mL
neutralization IC50 [28]: > 50000 ng/mL
neutralization IC50 [29]: > 50000 ng/mL
neutralization IC50 [30]: 26 ng/mL
neutralization IC50 [31]: 9 ng/mL
neutralization IC50 [32]: 15 ng/mL
neutralization IC50 (HIV Env of isolate CNE17): 7600 ng/mL
neutralization IC50 [33]: > 50000 ng/mL
neutralization IC50 [34]: 1 ng/mL
neutralization IC50 [35]: 153 ng/mL
neutralization IC50 (HIV Env of isolate CNE21): 7 ng/mL
neutralization IC50 [36]: 25 ng/mL
neutralization IC50 [37]: > 50000 ng/mL
neutralization IC50 [38]: 302 ng/mL
neutralization IC50 [39]: 18900 ng/mL

B2: ePGT121.15.H1.L1 (antibody, V domains shown)
VH: QMQLQESGPGLVKPGETLSLTCSVSGASISSSYWSWLRETPGKGLEWIGYTHHSGDTNYAPSLKSRVHLGLHPSKNQVSLSLTSVTAADTAVYYCARTLHGRRIYGVVAFNEWFTYFYWEVWGNGTQVTVSS
VL: SDISVAPGETVRISCGGESIGSRAVQWYQHRAGQAPKLIIYNNQDRPPGIPERFSGSPDIDFGTTATLTITNVEAGDEATYYCHIWDSRRPTNWVFGGGTTLTVL
neutralization IC50 [1]: > 50000 ng/mL
neutralization IC50 [2]: > 50000 ng/mL
neutralization IC50 [3]: > 50000 ng/mL
neutralization IC50 [4]: 0.2 ng/mL
neutralization IC50 [5]: 2.2 ng/mL
neutralization IC50 [6]: > 50000 ng/mL
neutralization IC50 [7]: 4 ng/mL
neutralization IC50 [8]: > 50000 ng/mL
neutralization IC50 [9]: 0.6 ng/mL
neutralization IC50 [10]: 0.3 ng/mL
neutralization IC50 [11]: 22.1 ng/mL
neutralization IC50 [12]: 1.3 ng/mL
neutralization IC50 (HIV Env of isolate CNE30): 2.4 ng/mL
neutralization IC50 [13]: 0.2 ng/mL
neutralization IC50 [14]: 0.1 ng/mL
neutralization IC50 [15]: > 50000 ng/mL
neutralization IC50 [16]: 0.7 ng/mL
neutralization IC50 [17]: 1.4 ng/mL
neutralization IC50 [18]: 0.9 ng/mL
neutralization IC50 [19]: > 50000 ng/mL
neutralization IC50 [20]: 0.4 ng/mL
neutralization IC50 [21]: > 50000 ng/mL
neutralization IC50 (HIV Env of isolate CNE58): 2.5 ng/mL
neutralization IC50 [22]: > 50000 ng/mL
neutralization IC50 [23]: 0.1 ng/mL
neutralization IC50 [24]: > 50000 ng/mL
neutralization IC50 (HIV Env of isolate PVO.4): 0.4 ng/mL
neutralization IC50 (HIV Env of isolate 263-8): 4.4 ng/mL
neutralization IC50 [25]: 0.1 ng/mL
neutralization IC50 [26]: 0.4 ng/mL
neutralization IC50 [27]: 4.6 ng/mL
neutralization IC50 [28]: > 50000 ng/mL
neutralization IC50 [29]: > 50000 ng/mL
neutralization IC50 [30]: 0.1 ng/mL
neutralization IC50 [31]: 0.2 ng/mL
neutralization IC50 [32]: 0.3 ng/mL
neutralization IC50 (HIV Env of isolate CNE17): 3.7 ng/mL
neutralization IC50 [33]: 0.1 ng/mL
neutralization IC50 [34]: 1.2 ng/mL
neutralization IC50 [35]: 0.3 ng/mL
neutralization IC50 (HIV Env of isolate CNE21): 0.1 ng/mL
neutralization IC50 [36]: 1.7 ng/mL
neutralization IC50 [37]: 2.4 ng/mL
neutralization IC50 [38]: 0.8 ng/mL
neutralization IC50 [39]: 724 ng/mL
